Tests used:
[1] = target: Bovine γ-globulin (Sigma-Aldrich G5009), a polyvalent antibody mixture of ~80 % IgG, ~10 % IgM and <10 % IgA (bovine); assay: fluorescence polarisation; steady-state fluorescence anisotropy in a high-pressure cell; 0.43 uM dansyl-labelled γ-globulin titrated with 0-250 uM unlabelled γ-globulin; 0.5 M TMAO; 20 °C; p = 500 bar; fitted to a 1:1 (monomer to dimer) model
[2] = target: Bovine γ-globulin (Sigma-Aldrich G5009), a polyvalent antibody mixture of ~80 % IgG, ~10 % IgM and <10 % IgA (bovine); assay: fluorescence polarisation; steady-state fluorescence anisotropy in a high-pressure cell; 0.43 uM dansyl-labelled γ-globulin titrated with 0-250 uM unlabelled γ-globulin; neat buffer; 20 °C; p = 500 bar; fitted to a 1:1 (monomer to dimer) model
[3] = target: Bovine γ-globulin (Sigma-Aldrich G5009), a polyvalent antibody mixture of ~80 % IgG, ~10 % IgM and <10 % IgA (bovine); assay: fluorescence polarisation; steady-state fluorescence anisotropy; 0.43 uM dansyl-labelled γ-globulin titrated with 0-250 uM unlabelled γ-globulin; 0.5 M TMAO; 20 °C; pressure not named for this value (ambient implied); fitted to a 1:1 (monomer to dimer) model
[4] = target: Bovine γ-globulin (Sigma-Aldrich G5009), a polyvalent antibody mixture of ~80 % IgG, ~10 % IgM and <10 % IgA (bovine); assay: fluorescence polarisation; steady-state fluorescence anisotropy; 0.43 uM dansyl-labelled γ-globulin titrated with 0-250 uM unlabelled γ-globulin; neat buffer; 20 °C; pressure not named for this value (ambient implied); fitted to a 1:1 (monomer to dimer) model

- Ka [1]: 997 M⁻¹
- Ka [2]: 1530 M⁻¹
- Ka [3]: 592 M⁻¹
- Ka [4]: 882 M⁻¹
Substance: Bovine γ-globulin (Sigma-Aldrich G5009), a polyvalent antibody mixture of ~80 % IgG, ~10 % IgM and <10 % IgA
